Measured values from article PMC11161652, “ASXLs binding to the PHD2/3 fingers of MLL4 provides a mechanism for the recruitment of BAP1 to active enhancers” (Nature Communications, 2024).

Legend:
[1] = test system: GST-MLL3PHD2/3; assay: GST pull-down, WT MLL3PHD2/3; format: binding, human; details: WT GST-MLL3PHD2/3; HEK293FT lysate, 3 h at 4 °C, western blot; n = 3
Experimental: (§1) Pull-down assays were performed by mixing resin-bound GST-MLL3PHD2/3 and GST-MLL4PHD2/3 (wild type and mutants) with lysates of HEK293FT expressing Myc-ASXL1, Myc-ASXL2 or Myc-ASXL2ΔMBH. Pellets of HEK293FT cells transfected with the appropriate pDEST expression construct (15 μg/dish using polyethylenimine (PEI)) were lysed with 10 times their volume of lysis buffer (50 mM Tris pH 7.3, 100 mM NaCl, 1 mM DTT, 1 mM EDTA, 1 mM PMSF, 0.1% Tween20, 1/100 anti-protease (Sigma)) and sonicated with a probe sonicator (Branson digital sonifier 450) calibrated at 40% amplitude for 3–4 rounds during 40–60 s. Lysates were then centrifuged in a Sorvall Lynx 6000 (rotor: F21-8x50Y) at 15,000 RPM during 20 min. Approximatively 9 μg of purified GST-fusion proteins bound to GSH resin (Sigma, G4510) were used for each condition. Final volume of GSH resin was adjusted to 30 μl per condition with empty GSH beads and incubated with 1.5 mL of HEK293FT lysate expressing Myc-ASXL1, Myc-ASXL2 or Myc-ASXL2ΔMBH for 3 h at 4 °C on a rotative system. A fraction of the reaction mixture (80 μL) was collected as the input. After the incubation, beads were washed 5 times and mixed with 100 μL of Laemmli buffer. Samples were loaded on 8% or 15% SDS-acrylamide gels and processed for western blotting.

[2] = test system: GST-MLL4PHD2/3; assay: GST pull-down, WT MLL4PHD2/3; format: binding, human; details: WT GST-MLL4PHD2/3; HEK293FT lysate, 3 h at 4 °C, western blot; n = 3
Experimental: as §1

[3] = test system: PR-DUB complex; assay: Tandem affinity purification: association with PR-DUB complex; format: cell-based, human; details: K562 soluble nuclear extracts, 3Flag-2Strep tag, western blot and mass spectrometry
Experimental: (§2) Isogenic K562 cell lines expressing 3xFlag2xStrep-tagged ASXL2 WT and ΔMBH (aa 650-670), were generated by integration at the AAVS1 safe harbor locus after DSB induction and recombination targeted by co-transfection with a ZFN expression plasmid, as previously described. 2 × 10^5 cells were transfected with 400 ng of ZFN expression vector and 4 μg of donor constructs. Selection and cloning were performed in RPMI medium supplemented with 0.5 μg/mL puromycin starting 2–3 days post transfection. Clones were obtained by limiting dilution and expanded before harvest for western blot analysis.
(§3) For purification of native complexes, after large-scale expansion of K562 clones, affinity purifications of tagged ASXL2 WT and ΔMBH (aa 650-670) were performed on nuclear extracts as previously described. Briefly, nuclear extracts were prepared following standard procedures and pre-cleared with CL6B Sepharose beads. […] Typically, 5–15 μl of the elutions (1–3% of total) was loaded on NuPAGE 4–12% Bis-Tris gels (Invitrogen) and analyzed by silver staining and western blots. […] Purified fractions were prepared and analyzed at the Proteomics Platform of the Quebec Genomic Center using an Orbitrap Fusion mass spectrometer (Thermo Fisher Scientific) as previously described. […]

[4] = test system: MLL3/4 complexes; assay: Tandem affinity purification: interaction with MLL3/4 complexes; format: cell-based, human; details: K562 soluble nuclear extracts, 3Flag-2Strep tag, western blot and mass spectrometry
Experimental: as §2, §3

[5] = test system: H2AK119; assay: H2AK119 deubiquitination assay; format: biochemical, human
Experimental: The deubiquitination reactions were done by adding equivalent amounts of ASXL2 WT or ΔMBH (4 μl E1-F) native complexes purified from K562 cells to 0.5 μg of chromatin enriched extracts from K562 cells, incubated at 37 °C in 50 mM Tris-HCl pH 7.3, 50 mM NaCl, 1 mM MgCl2, 1 mM DTT, 1 mM PMSF, 10 μg/ml Leupeptin, 10 μg/ml Pepstatin A, 25 μg/ml Aprotinin. After 3 or 6 h incubation, 4X Laemmli buffer was added, the samples run on 15% SDS-PAGE and transferred on nitrocellulose membrane. Immunoblotting was performed with an anti-H2AK119ub (Cell Signaling, D27C4, rabbit polyclonal) diluted 1:2000 followed by HRP conjugated secondary goat anti-rabbit antibody (Sigma) used at a 1:10,000 dilution. The immunoblots were visualized using a Western Lightning plus-ECL reagent (Perkin-Elmer). Anti-H3 (Abcam, Ab1791, rabbit polyclonal) was used at a 1:50,000 dilution.
Cell pellets were harvested 2 days post-transfection and lysed with 10 times their own volume with EB300 lysis buffer (50 mM Tris pH 7.3, 300 mM NaCl, 0.5% Triton X100 (V/V), 5 mM EDTA, 50 mM NaF, 1 mM Na3VO4 (activated), 10 mM Beta-glycerol-phosphate, 1 mM DTT, 1 mM PMSF, 1/100 anti-protease (Sigma)). Lysates were incubated on ice for 30 min before centrifugation in a Sorvall Lynx 6000 (rotor: F21-8x50Y) at 15,000 RPM during 20 min. Supernatants were collected and diluted with EB0 (50 mM Tris pH 7.3, 0.5% Triton X100 (V/V), 5 mM EDTA, 50 mM NaF, 1 mM Na3VO4, 10 mM Beta-glycerol-phosphate, 1 mM DTT, 1 mM PMSF, 1/100 anti-protease) to adjust the final concentration of NaCl to 150 mM. Agarose anti-FlagM2 beads (40 μL) (Sigma, A2220) were added to each lysate and incubated overnight at 4 °C on a rotative system. The next day, beads were washed 5 times with the wash buffer (50 mM Tris pH 7.3, 150 mM NaCl, 0.5% Triton X100 (V/V), 1/500 anti-protease, 1 mM DTT, 1 mM PMSF). […] Following three elutions of 2 h each, the pooled fractions were incubated with 40 μL of anti-HA beads (Sigma A2095) overnight at 4 °C on a rotative system. […]

[6] = test system: H3K4 (recombinant histone octamers or mono-nucleosomes); assay: H3K4 histone methyltransferase assay; format: biochemical, human; details: purified complexes, 50 μM S-adenosyl-L-methionine, 8 h at 30 °C, n = 2
Experimental: Equivalent amounts of purified ASXL2 WT and ΔMBH complexes were incubated with 0.5 μg of reconstituted recombinant mono-nucleosomes or histone octamers as substrates. All HMT assays were performed in 50 mM Tris-HCl pH 8, 100 mM KCl, 5 mM MgCl2, 0.1 mM DTT, 10% glycerol in the presence of 50 μM S-adenosyl-L-methionine (Sigma, A7007). After an 8 h incubation at 30 °C, 4X Laemmli buffer was added, the samples run on 15% SDS-PAGE and transferred on nitrocellulose membrane. Immunoblotting was performed with an anti-H3K4me1 (Ab8895, rabbit polyclonal) diluted 1:1000 followed by HRP conjugated secondary goat anti-rabbit antibody (Sigma) used at a 1:10,000 dilution. The immunoblots were visualized using a Western Lightning plus-ECL reagent (Perkin-Elmer). Anti-H4 (Abcam, Ab7311, rabbit polyclonal) was used at a 1:2,500 dilution.

[7] = test system: active enhancer upstream of GRHL2 gene in K562 ASXL2 KD cells; assay: ChIP-qPCR at active enhancer upstream of GRHL2; format: cell-based, human; details: K562 ASXL2 KD cells complemented from AAVS1; IP/input corrected for total H3; three biological replicates
Source text: K562 cell lines with knocked down expression of endogenous ASXL2 were obtained after double infection of lentivirus expressing Cas9 and 4 different gRNAs targeting the end of exon 1 (pLENTI_CRISPR_V2, co-selection by FACS with GFP). Clone 1 L was selected (obtained with gRNA 1: 5′-[…]-3′ cutting at the very end of exon 1) for transfection of WT and DMBH ASXL2 vectors for integration and stable expression from the AAVS1 safe harbor, as described for the tagged K562 cell lines used for purification. Expression levels of endogenous ASXL2, WT and ΔMBH ASXL2 were monitored by running SDS-PAGE and transferring onto nitrocellulose membrane. Anti-FLAG M2 conjugated to horseradish peroxidase (A8592, Sigma) was used at 1:10,000 dilution and anti-ASXL2, at 1:2,000 (Cell Signaling (E623X), CS71257, lot:1). Immunoblots were visualized using a Western Lightning plus ECL reagent (Perkin-Elmer).
Crosslinked chromatin from K562 cells and immunoprecipitations were prepared as previously described. For chromatin immunoprecipitation, 100 μg of chromatin was incubated with 2 μg anti-H2AK119ub (Cell Signaling, 8240S, D27C4 lot:9) or 3 μg anti-H3 (Abcam, ab1791, lot GR3421644-1), 2 μg anti-H3Kme1 (Abcam, ab8895, lot GR442591-1), 2 μg anti-H3K27ac (Thermo Fisher, MA5-23516, lot: ZA4181671) or 0.3 μg anti-H3K27me3 (Cell Signaling, C36B11, 9733 S lot:19) antibodies overnight at 4 °C. 25 μl of Protein A Dynabeads were then added to each sample, and the mixtures were incubated at 4 °C for 4 h. The beads were washed extensively and eluted with 1% SDS and 0.1 M NaHCO3. Cross-linked samples were reversed by heating overnight at 65 °C in the presence of 0.2 M NaCl. Samples were then treated with RNase A and proteinase K for 2 h, and DNA was recovered using MinElute PCR purification Kit (Qiagen, 28004) according to the manufacturer’s instructions. Quantitative real-time PCR corrected for primer efficiencies in the linear range was performed using SYBR Green I (Roche, 04877352001) on a LightCycler 480 (Roche). Primers for 5′ end of active enhancer: Fwd: 5′-[…]; Rev: 5′-[…]; For 3′ end: Fwd: 5′-[…], Rev: 5′-[…].

B1: ASXL2ΔMBH: ΔMBH ASXL2 mutant lacking the MLL3/4-binding domain (aa 650-670) (protein)
chain: MREKGRRKKGRTWAEAAKTVLEKYPNTPMSHKEILQVIQREGLKEIRSGTSPLACLNAMLHTNSRGEEGIFYKVPGRMGVYTLKKDVPDGVKELSEGSEESSDGQSDSQSSENSSSSSDGGSNKEGKKSRWKRKVSSSSPQSGCPSPTIPAGKVISPSQKHSKKALKQALKQQQQKKQQQQCRPSISISSNQHLSLKTVKAASDSVPAKPATWEGKQSDGQTGSPQNSNSSFSSSVKVENTLLGLGKKSFQRSERLHTRQMKRTKCADIDVETPDSILVNTNLRALINKHTFSVLPGDCQQRLLLLLPEVDRQVGPDGLMKLNGSALNNEFFTSAAQGWKERLSEGEFTPEMQVRIRQEIEKEKKVEPWKEQFFESYYGQSSGLSLEDSKKLTASPSDPKVKKTPAEQPKSMPVSEASLIRIVPVVSQSECKEEALQMSSPGRKEECESQGEVQPNFSTSSEPLLSSALNTHELSSILPIKCPKDEDLLEQKPVTSAEQESEKNHLTTASNYNKSESQESLVTSPSKPKSPGVEKPIVKPTAGAGPQETNMKEPLATLVDQSPESLKRKSSLTQEEAPVSWEKRPRVTENRQHQQPFQVSPQPFLNRGDRIQVRKVPPLKIPVSRISPMPFHPSQVSPRARFPVSITSPRAAAAAAAAAAAAASVGGTIPGPGPGGGQGPGEGGEGQTARGGSPGSDRVSETGKGPTLELAGTGSRGGTRELLPCGPETQPQSETKTTPSQAQPHSVSGAQLQQTPPVPPTPAVSGACTSVPSPAHIEKLDNEKLNPTRATATVASVSHPQGPSSCRQEKAPSPTGPALISGASPVHCAADGTVELKAGPSKNIPNPSASSKTDASVPVAVTPSPLTSLLTTATLEKLPVPQVSATTAPAGSAPPSSTLPAASSLKTPGTSLNMNGPTLRPTSSIPANNPLVTQLLQGKDVPMEQILPKPLTKVEMKTVPLTAKEERGMGALIATNTTENSTREEVNERQSHPATQQQLGKTLQSKQLPQVPRPLQLFSAKELRDSSIDTHQYHEGLSKATQDQILQTLIQRVRRQNLLSVVPPSQFNFAHSGFQLEDISTSQRFMLGFAGRRTSKPAMAGHYLLNISTYGRGSESFRRTHSVNPEDRFCLSSPTEALKMGYTDCKNATGESSSSKEDDTDEESTGDEQESVTVKEEPQVSQSAGKGDTSSGPHSRETLSTSDCLASKNVKAEIPLNEQTTLSKENYLFTRGQTFDEKTLARDLIQAAQKQMAHAVRGKAIRSSPELFSSTVLPLPADSPTHQPLLLPPLQTPKLYGSPTQIGPSYRGMINVSTSSDMDHNSAVPGSQVSSNVGDVMSFSVTVTTIPASQAMNPSSHGQTIPVQAFSEENSIEGTPSKCYCRLKAMIMCKGCGAFCHDDCIGPSKLCVSCLVVR
modifications: left off: 3xFlag, end not stated, kept | 2xStrep, end not stated, kept
association in pull-down [1]: essentially abolished
association in pull-down [2]: essentially abolished
association with PR-DUB complex [3]: stably associates with the expected components of the PR-DUB complex
interaction with MLL3/4 complexes [4]: abrogated the interaction between ASXL2 and MLL3/4 in vivo
deubiquitinase activity toward H2AK119Ub in vitro ([5]; BAP1/ASXL2 complexes from co-transfected HEK293FT cells, purified native nucleosomes, room temperature, n=2): does not affect
de-ubiquitination of H2AK119 ([5]; purified complexes on human chromatin, 37 °C, 3 or 6 h, immunoblot): efficient and equivalent de-ubiquitination of H2AK119
mono-methylation of H3K4 [6]: markedly decreased
H2AK119ub level [7]: not the ΔMBH ASXL2 mutant led to a decrease in H2AK119ub level
H3K4me1 level [7]: not affected
